The series is described as follows: soluble fraction after stress (log2 fold change); higher = more stays soluble; pooled small domains, quantitative proteomics. To be noted: stress: 50 degC. Put shortly: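 The measure of aggregation propensity here is the base-two logarithm of the fold change in the soluble amount of each protein after stress. A higher value means more of that protein stays in solution. Stress was applied at 50°C to pooled libraries of small protein domains, read out by high-throughput quantitative proteomics.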

Turning to “HMLFYSDLVRLISFAEATLGKNEFETWYMSHHQGMKYTEIAIALGISVRTVEDRIARTKNHFRKI”, the “soluble fraction (log2)” value was -0.494.

For “HMNSEFPFNGGRIVDNVPANRLQIFFDEKPDADVRTRLKQNGFRWAPNSGAWQSYRHGYTLDWARREFNA”, the “soluble fraction (log2)” value turned out to be 0.134.

Turning to “HMEVQVGKQVRAFRETLGMTVQQFAERTGFSAALLAQIENRMVSPSLGTLVKIANTFGTTVSSFIG”, the “soluble fraction (log2)” value was 0.0076.

“HMVKSIDEIYNEAVKSLANEDYDAAKKLFNYLINNFSDPDKFPLSLFWLAEIEFSSSNFDASKNYYMQ”: the “soluble fraction (log2)” value was found to be 0.0746.

As to “HMVKLSATVKELLDFVIAKKTVTSSNVSKHFDISAQNASGRLKKLHATGLVLGQKEVAESGGLEFVYRS”, the “soluble fraction (log2)” value is -0.183.

“HMVPVSIYAYNKIKTAILNNELMPGEKLVEASLAETLNMSRTPIREALRQLEQEGFVTYYPQKGSIVSH”: the “soluble fraction (log2)” value was -0.657.

In the case of “HMDDATTQLADRLLDLRRKAGYSQEQLADLLGVSRQAISKWEGAQGRPEVDNVVKLAQIYRVSTDFILTGS”, the “soluble fraction (log2)” value is -0.552.

As for “HMESYNIVEQVLTKKILSKGNTLAKLSNEFDGLVMLVIRGDEFIIPNGETLLFEKDILVINNGP”, the “soluble fraction (log2)” value is -1.72.

In the case of “HMNAFEIYPNPASNLIRIDAEFTVAKIFSQTGNLIQTSTTKEIDVYNLANGIYFVKLDDSPSMVKFVIN”, the “soluble fraction (log2)” value is -0.705.

For the sequence “HMRKPDLTSVRTLIRSVSKLARHLKISPNGIYRWISVNRIPGAHVVKVANYYDVEIRDLVHLTGSD”, the “soluble fraction (log2)” value is -1.39.

For the sequence “HMYNMEELAGHTEKVYNSLPEELKLVIKLREIENMSYDEISLKTGMPIGTVRSRLHRAREILVDSLKDY”, the “soluble fraction (log2)” value is -0.367.

As for “HMIERKLRKKEHFIASVGEKVKIKNFATETYKGELISADNEKVVVETEFGKEEITYDNILAAATYFE”, the “soluble fraction (log2)” value was -0.135.

Turning to “HMEDPFATLGVHREASLDEIKRAYRRLAMFWHPDRNPEAVAGTEFKRVHAAYELLLDPQRLAEWQQAQAT”, the “soluble fraction (log2)” value turned out to be 0.04.

In the case of “HMEKYNIIVDNEDNFRLDKIIALNMKDLSRTMIQEMINRGLVSVNGKITKASYKTKLNDQIEIMIED”, the “soluble fraction (log2)” value is -0.28.

Take “HMKAERLLALLTILLSGKRVSARWLSEELEVSERTVYRDVEALSEAGFPVYATTGRDGGFSLIDGF”: the “soluble fraction (log2)” value is -2.08.

As to “HMDIPITFEQLPAKAQAFVKQYFKIEEIASVWRDDDIHDQDYKVYFNDGSEIEFYANGDWEEV”, the “soluble fraction (log2)” value is -0.62.

As to “HMANKLSEQIYGSILKDIVNGVYAPREFISEAQIAAKYGVSKAPVKEAMHILASEGFLLSYPKRGYMVN”, the “soluble fraction (log2)” value was -0.347.

As to “HMSAEKPVKSELFYKSMLNSFEQAVRFMIANGILEDFKSRIVAINNETNHQNWFNKQEFNAIIERF”, the “soluble fraction (log2)” value was -0.449.

On to “HMDDAVSHPDAGHIVTVTKVSADGTAEVMYRGASWRAKTADGSPLTAGSARIVRVDGAALVVEP”, for which the “soluble fraction (log2)” value is 0.052.

Consider “HMVQLAEGERYRRIQEANDFINRQQWPGKAAMGRLKDTEKAQYNLWLDYLDALEAVDTSSAPKINWPVPPE”, for which the “soluble fraction (log2)” value came out at 0.167.

Regarding “HMNEVRINTAHIEHKYLGEVKVLDIQEMRNARGRDADPLAFLAIRFWSPRGVLVRVKDSRDATPYWLIS”, the “soluble fraction (log2)” value stood at 0.3.

Turning to “HMFAAIFADDSGFTTRSKRFGPYVEEIAADWQAVKQLSDEDAKQALVPLVKKIELALSTLQQFVSSV”, the “soluble fraction (log2)” value was -0.244.

Consider “HMKQTDQELAEMLRFRAAQRGLLMSDEVVNYVMTRVERSAKSLIMLLDRIDRAALAQARPVTIPLINEL”, for which the “soluble fraction (log2)” value was -0.499.

In the case of “HMEYTVNHYPEKHRFEVVEDGLTAYVEYRLRGDALDIIHTIVPKNLEGRGIAATLVETAYKYAKEQ”, the “soluble fraction (log2)” value was -1.2.

As for “HMDHKSSYWSVKEANLFPELLKQFGSQWSLISDKLGTKSTTMVRNYYQRNAAQLGWKSVVEEADFKRNA”, the “soluble fraction (log2)” value was -0.436.

As for “HMEKIYLISDAAKQVNVEAHVLRYWEEELDIPAKRNELGHRYYTQEDIETFRKVKELKAQGIQLKGIKNIL”, the “soluble fraction (log2)” value turned out to be 0.123.

For the sequence “HMGTGQTNEKLAVLTNIQKTQEQILLTLGAKNPLVNLKQYRETLAKILSLSGYKNSNEFFLDPM”, the “soluble fraction (log2)” value was -0.0851.

Consider “HMPEAITLRDLKTYSKQAASGYLDDHQLVLVEKEAHSEDVPEGQVIKQKPGAGASVKPGDKVEVTFSLGPE”, for which the “soluble fraction (log2)” value is 0.0136.

The values above are taken from the domain aggregation screens of Martell et al. (2025).
